Data taken from the supplement of paper PMC9428881.
± gives the standard error.

Test: background-corrected fluorescence of 3'-dye-labeled ssDNA relative to brightest sequence (3'-GCGCG) (fraction); higher = brighter dye fluorescence (less quenching)
Conditions: dye: Cy3 (3' terminal)
How it was run: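 Single-stranded DNA was built on glass slides by light-directed phosphoramidite synthesis, ending in a 3' Cy3 or Cy5 dye beside each of 1024 permuted pentamers. Arrays were washed in acetonitrile for 2 h at r.t., then scanned at 532 or 635 nm before and after overnight ethylenediamine/ethanol deprotection. Each value averages 10 features per array and at least 3 syntheses. Fluorescence, corrected by subtracting unlabeled-oligo background, is scaled to the brightest sequence.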
In the case of “TTTTTTGCTCATGATCATGCTTTTTTTTTTTTTTTAGCGA”, the background-corrected fluorescence is reported as 0.708 ± 0.033. “TTTTTTGCTCATGATGAGCATTTTTTTTTTTTTTTAGCCT [TCCGA]” showed a background-corrected fluorescence of 0.481 ± 0.039. “TTTTTTGCTCATGATGATCATTTTTTTTTTTTTTTAGCCG [GCCGA]” gave a background-corrected fluorescence of 0.554 ± 0.018. Work on “TTTTTTGCTCATGATGATGATTTTTTTTTTTTTTTAGCCC [CCCGA]” yielded a background-corrected fluorescence of 0.393 ± 0.022. “TTTTTTGCTCATGATGATGCTTTTTTTTTTTTTTTAGCCA [ACCGA]” gave a background-corrected fluorescence of 0.5 ± 0.028. Sequence “TTTTTTGCTCATGATGCGCATTTTTTTTTTTTTTTAGCAT [TACGA]” has a background-corrected fluorescence of 0.519 ± 0.039. “TTTTTTGCTCATGATGCTCATTTTTTTTTTTTTTTAGCAG [GACGA]” gave a background-corrected fluorescence of 0.574 ± 0.018. Work on “TTTTTTGCTCATGATGCTGATTTTTTTTTTTTTTTAGCAC [CACGA]” yielded a background-corrected fluorescence of 0.415 ± 0.019. Work on “TTTTTTGCTCATGATGCTGCTTTTTTTTTTTTTTTAGCAA [AACGA]” yielded a background-corrected fluorescence of 0.579 ± 0.03. For “TTTTTTGCTCATGCGCAGCATTTTTTTTTTTTTTTAGATT”, the background-corrected fluorescence was 0.565 ± 0.035. Work on “TTTTTTGCTCATGCGCATCATTTTTTTTTTTTTTTAGATG [GTAGA]” yielded a background-corrected fluorescence of 0.552 ± 0.027. Sequence “TTTTTTGCTCATGCGCATGATTTTTTTTTTTTTTTAGATC [CTAGA]” has a background-corrected fluorescence of 0.464 ± 0.013. For “TTTTTTGCTCATGCGCATGCTTTTTTTTTTTTTTTAGATA [ATAGA]”, the background-corrected fluorescence was 0.582 ± 0.025. Work on “TTTTTTGCTCATGCTCAGCATTTTTTTTTTTTTTTAGAGT [TGAGA]” yielded a background-corrected fluorescence of 0.598 ± 0.017. “TTTTTTGCTCATGCTCATCATTTTTTTTTTTTTTTAGAGG [GGAGA]” gave a background-corrected fluorescence of 0.645 ± 0.037. Work on “TTTTTTGCTCATGCTCATGATTTTTTTTTTTTTTTAGAGC [CGAGA]” yielded a background-corrected fluorescence of 0.565 ± 0.022. In the case of “TTTTTTGCTCATGCTCATGCTTTTTTTTTTTTTTTAGAGA”, the background-corrected fluorescence is reported as 0.633 ± 0.031. Sequence “TTTTTTGCTCATGCTGAGCATTTTTTTTTTTTTTTAGACT [TCAGA]” has a background-corrected fluorescence of 0.519 ± 0.025. “TTTTTTGCTCATGCTGATCATTTTTTTTTTTTTTTAGACG [GCAGA]” showed a background-corrected fluorescence of 0.563 ± 0.031. Sequence “TTTTTTGCTCATGCTGATGATTTTTTTTTTTTTTTAGACC [CCAGA]” has a background-corrected fluorescence of 0.439 ± 0.034. Sequence “TTTTTTGCTCATGCTGATGCTTTTTTTTTTTTTTTAGACA [ACAGA]” has a background-corrected fluorescence of 0.522 ± 0.06. For “TTTTTTGCTCATGCTGCGCATTTTTTTTTTTTTTTAGAAT [TAAGA]”, the background-corrected fluorescence was 0.59 ± 0.032. For “TTTTTTGCTCATGCTGCTCATTTTTTTTTTTTTTTAGAAG [GAAGA]”, the background-corrected fluorescence was 0.5917 ± 0.0049. In the case of “TTTTTTGCTCATGCTGCTGATTTTTTTTTTTTTTTAGAAC [CAAGA]”, the background-corrected fluorescence is reported as 0.485 ± 0.022. In the case of “TTTTTTGCTCATGCTGCTGCTTTTTTTTTTTTTTTAGAAA [AAAGA]”, the background-corrected fluorescence is reported as 0.64 ± 0.019. “TTTTTTGCTGAGCAGCAGCATTTTTTTTTTTTTTTACTTT [TTTCA]” gave a background-corrected fluorescence of 0.519 ± 0.022. With “TTTTTTGCTGAGCAGCATCATTTTTTTTTTTTTTTACTTG [GTTCA]” the background-corrected fluorescence was 0.503 ± 0.019. In the case of “TTTTTTGCTGAGCAGCATGATTTTTTTTTTTTTTTACTTC [CTTCA]”, the background-corrected fluorescence is reported as 0.405 ± 0.022. With “TTTTTTGCTGAGCAGCATGCTTTTTTTTTTTTTTTACTTA [ATTCA]” the background-corrected fluorescence was 0.493 ± 0.06. Work on “TTTTTTGCTGAGCATCAGCATTTTTTTTTTTTTTTACTGT [TGTCA]” yielded a background-corrected fluorescence of 0.63 ± 0.027. In the case of “TTTTTTGCTGAGCATCATCATTTTTTTTTTTTTTTACTGG [GGTCA]”, the background-corrected fluorescence is reported as 0.623 ± 0.022. With “TTTTTTGCTGAGCATCATGATTTTTTTTTTTTTTTACTGC [CGTCA]” the background-corrected fluorescence was 0.491 ± 0.033. Sequence “TTTTTTGCTGAGCATCATGCTTTTTTTTTTTTTTTACTGA [AGTCA]” has a background-corrected fluorescence of 0.654 ± 0.04. “TTTTTTGCTGAGCATGAGCATTTTTTTTTTTTTTTACTCT [TCTCA]” gave a background-corrected fluorescence of 0.421 ± 0.0073. For “TTTTTTGCTGAGCATGATCATTTTTTTTTTTTTTTACTCG [GCTCA]”, the background-corrected fluorescence was 0.571 ± 0.028. “TTTTTTGCTGAGCATGATGATTTTTTTTTTTTTTTACTCC [CCTCA]” showed a background-corrected fluorescence of 0.378 ± 0.023. For “TTTTTTGCTGAGCATGATGCTTTTTTTTTTTTTTTACTCA”, the background-corrected fluorescence was 0.482 ± 0.028. With “TTTTTTGCTGAGCATGCGCATTTTTTTTTTTTTTTACTAT [TATCA]” the background-corrected fluorescence was 0.531 ± 0.012. Sequence “TTTTTTGCTGAGCATGCTCATTTTTTTTTTTTTTTACTAG [GATCA]” has a background-corrected fluorescence of 0.554 ± 0.029. “TTTTTTGCTGAGCATGCTGATTTTTTTTTTTTTTTACTAC [CATCA]” showed a background-corrected fluorescence of 0.477 ± 0.017. “TTTTTTGCTGAGCATGCTGCTTTTTTTTTTTTTTTACTAA [AATCA]” gave a background-corrected fluorescence of 0.522 ± 0.0087. “TTTTTTGCTGATCAGCAGCATTTTTTTTTTTTTTTACGTT [TTGCA]” showed a background-corrected fluorescence of 0.552 ± 0.018. “TTTTTTGCTGATCAGCATCATTTTTTTTTTTTTTTACGTG [GTGCA]” gave a background-corrected fluorescence of 0.589 ± 0.022. In the case of “TTTTTTGCTGATCAGCATGATTTTTTTTTTTTTTTACGTC [CTGCA]”, the background-corrected fluorescence is reported as 0.448 ± 0.016. “TTTTTTGCTGATCAGCATGCTTTTTTTTTTTTTTTACGTA [ATGCA]” gave a background-corrected fluorescence of 0.61 ± 0.016. For “TTTTTTGCTGATCATCAGCATTTTTTTTTTTTTTTACGGT [TGGCA]”, the background-corrected fluorescence was 0.664 ± 0.018. “TTTTTTGCTGATCATCATCATTTTTTTTTTTTTTTACGGG [GGGCA]” gave a background-corrected fluorescence of 0.6553 ± 0.0063. “TTTTTTGCTGATCATCATGATTTTTTTTTTTTTTTACGGC [CGGCA]” gave a background-corrected fluorescence of 0.594 ± 0.029. For “TTTTTTGCTGATCATCATGCTTTTTTTTTTTTTTTACGGA [AGGCA]”, the background-corrected fluorescence was 0.683 ± 0.03. Work on “TTTTTTGCTGATCATGAGCATTTTTTTTTTTTTTTACGCT [TCGCA]” yielded a background-corrected fluorescence of 0.5 ± 0.065. With “TTTTTTGCTGATCATGATCATTTTTTTTTTTTTTTACGCG [GCGCA]” the background-corrected fluorescence was 0.973 ± 0.017. “TTTTTTGCTGATCATGATGATTTTTTTTTTTTTTTACGCC [CCGCA]” showed a background-corrected fluorescence of 0.467 ± 0.021. Work on “TTTTTTGCTGATCATGATGCTTTTTTTTTTTTTTTACGCA” yielded a background-corrected fluorescence of 0.525 ± 0.032. In the case of “TTTTTTGCTGATCATGCGCATTTTTTTTTTTTTTTACGAT [TAGCA]”, the background-corrected fluorescence is reported as 0.519 ± 0.035. With “TTTTTTGCTGATCATGCTCATTTTTTTTTTTTTTTACGAG [GAGCA]” the background-corrected fluorescence was 0.62 ± 0.017. “TTTTTTGCTGATCATGCTGATTTTTTTTTTTTTTTACGAC [CAGCA]” gave a background-corrected fluorescence of 0.486 ± 0.025. Work on “TTTTTTGCTGATCATGCTGCTTTTTTTTTTTTTTTACGAA [AAGCA]” yielded a background-corrected fluorescence of 0.575 ± 0.032. “TTTTTTGCTGATGAGCAGCATTTTTTTTTTTTTTTACCTT [TTCCA]” gave a background-corrected fluorescence of 0.463 ± 0.018. Work on “TTTTTTGCTGATGAGCATCATTTTTTTTTTTTTTTACCTG [GTCCA]” yielded a background-corrected fluorescence of 0.499 ± 0.023. “TTTTTTGCTGATGAGCATGATTTTTTTTTTTTTTTACCTC [CTCCA]” showed a background-corrected fluorescence of 0.438 ± 0.0039. With “TTTTTTGCTGATGAGCATGCTTTTTTTTTTTTTTTACCTA [ATCCA]” the background-corrected fluorescence was 0.449 ± 0.018. “TTTTTTGCTGATGATCAGCATTTTTTTTTTTTTTTACCGT [TGCCA]” gave a background-corrected fluorescence of 0.624 ± 0.025. “TTTTTTGCTGATGATCATCATTTTTTTTTTTTTTTACCGG [GGCCA]” gave a background-corrected fluorescence of 0.69 ± 0.03. Sequence “TTTTTTGCTGATGATCATGATTTTTTTTTTTTTTTACCGC [CGCCA]” has a background-corrected fluorescence of 0.592 ± 0.014. “TTTTTTGCTGATGATCATGCTTTTTTTTTTTTTTTACCGA [AGCCA]” showed a background-corrected fluorescence of 0.601 ± 0.025. Sequence “TTTTTTGCTGATGATGAGCATTTTTTTTTTTTTTTACCCT [TCCCA]” has a background-corrected fluorescence of 0.446 ± 0.023. “TTTTTTGCTGATGATGATCATTTTTTTTTTTTTTTACCCG [GCCCA]” gave a background-corrected fluorescence of 0.505 ± 0.03. For “TTTTTTGCTGATGATGATGATTTTTTTTTTTTTTTACCCC [CCCCA]”, the background-corrected fluorescence was 0.358 ± 0.016.
